Key:
GST-YoeB fusion protein [1] = molecular target: T1, GST-YoeB fusion protein (Escherichia coli, UniProt P69348 1-84); experiment: peptide array, low stringency
T1 construct: also called YoeB-GST; GST-YoeB fusion polypeptide; not shown: glutathione S-transferase (GST) fusion partner encoded by the pET42a expression vector (Novagen); vector-encoded linker of pET42a between GST and the EcoRI cloning site; not described
T1 sequence: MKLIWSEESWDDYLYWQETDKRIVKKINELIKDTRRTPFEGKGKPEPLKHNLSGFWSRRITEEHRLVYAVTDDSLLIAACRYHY

GST-YoeB fusion protein [2] = molecular target: T1, GST-YoeB fusion protein; experiment: peptide array on cellulose membrane, low stringency, GST-YoeB probe, anti-GST antibody and chemiluminescence
GST-YoeB fusion protein [3] = molecular target: T1, GST-YoeB fusion protein; experiment: peptide array of single-replacement analogs
Description: (§1) Following incubation, the membrane was washed once in TBS-T then supplemented with 10 ml suspension comprising TBS, mouse anti-GST antibody and horseradish peroxidase conjugated goat anti-mouse antibody in the appropriate titers. Following 1 hour incubation at room temperature the membrane was briefly washed with TBS-T and TBS.

GST-YoeB fusion protein [4] = molecular target: T1, GST-YoeB fusion protein; experiment: peptide array on cellulose membrane, single-residue shift, high stringency, GST-YoeB probe, anti-GST antibody and chemiluminescence
Description: as §1

GST-YoeB fusion protein [5] = molecular target: T1, GST-YoeB fusion protein; experiment: peptide array on cellulose membrane, anti-GST detection
Description: as §1

## DSIDSLKSGKGTE [YefM75-87 peptide]
GST-YoeB fusion protein [1]
  binding result: binds

## YSEARQNLSATMM [YefM15-27 peptide]
GST-YoeB fusion protein [2]
  binding result: binds

## RTISYSEARQNGS (Position 22 counts on whole YefM) [YefM11-23 analog with leucine 22 replaced by glycine]
GST-YoeB fusion protein [3]
  binding result: binds

B1: 12-24 (peptide)
peptide: TISYSEARQNLSA
notes: Cell not labelled; also called YefM12-24 peptide
GST-YoeB fusion protein [4]
  binding result: binds

## RTISYSEAGQNLS (Arrayed on a cellulose membrane) [YefM11-23 analog with arginine 19 replaced by glycine]
GST-YoeB fusion protein [5]
  binding result: no binding

B2: 10-22 (peptide)
peptide: MRTISYSEARQNL
notes: Cell not labelled; also called YefM10-22 peptide
GST-YoeB fusion protein [4]
  binding result: binds

## RTISYSEARQNAS (Position 22 counts on whole YefM) [YefM11-23 analog with leucine 22 replaced by alanine]
GST-YoeB fusion protein [3]
  binding result: binds

## RTISYSEAAQNLS (Arrayed on a cellulose membrane) [YefM11-23 analog with arginine 19 replaced by alanine]
GST-YoeB fusion protein [5]
  binding result: no binding

B3: YefM13-25 peptide (peptide)
peptide: ISYSEARQNLSAT
notes: It follows from 'YefM11-23-YefM15-27', three tridecamers with a shift of two amino acids; also called second of the three tridecamers YefM11-23-YefM15-27
GST-YoeB fusion protein [2]
  binding result: binds

From patent publication US20070298043A1 (RAMOT AT TEL AVIV UNIVERSITY, published 2007)
